Source: patent US20250270315A1 (ELPISCIENCE SUZHOU BIOPHARMA, published 2025)
Where two headings read alike, the source gives them in different places.

What was measured:
[1] = biological target: T1, human SIRPα v1 ECD recombinant protein (tag not given) (human, UniProt P78324 31-373); experiment: competitive ELISA, mFc-CD47 ECD on coated SIRPα v1 ECD
T1 construct: extracellular domain; also called biotin labeled soluble human SIRPα v1 ECD recombinant protein; ELISA microplate coated human SIRPα v1 ECD
T1 sequence (P78324 31-373): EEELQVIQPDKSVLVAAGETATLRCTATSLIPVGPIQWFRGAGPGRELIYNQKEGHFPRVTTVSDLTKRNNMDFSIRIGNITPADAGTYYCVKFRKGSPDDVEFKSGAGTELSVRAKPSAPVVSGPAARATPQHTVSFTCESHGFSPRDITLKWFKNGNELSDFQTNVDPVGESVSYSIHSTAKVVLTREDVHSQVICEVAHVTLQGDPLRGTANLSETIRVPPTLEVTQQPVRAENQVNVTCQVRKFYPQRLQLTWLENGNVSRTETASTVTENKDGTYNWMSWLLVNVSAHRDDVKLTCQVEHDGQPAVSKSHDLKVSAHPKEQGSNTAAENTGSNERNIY
Experimental: (§1) Competitive ELISA assay was used to determine whether the purified chimeric antibodies can block CD47 and SIRPα interaction. Briefly, antibody and mFc tagged human CD47 ECD recombinant protein were co-incubated with ELISA microplate coated human SIRPα v1 ECD (FIGS. 6A and 6B) or human SIRPα v2 ECD (FIGS. 7A and 7B) recombinant protein. After washing, HRP labeled anti-mouse Fc 2nd antibody (Sigma) was added and incubated at 37° C. for 1 hour. Then, 100 μl/well of TMB solution (Biotechnology) was added. After incubation for 15 minutes at room temperature, the reaction was stopped by the addition of 50 μl of 1N HCl. OD 450 nm was read. Blocking ratio was determined by blockade of human CD47 ECD recombinant protein binding to ELISA microplate coated human SIRPα ECD recombinant protein. Other than 005, all antibodies as tested can block interaction between human CD47 and different human SIRPα variants.
(§2) The humanized antibodies were tested for the ability to block CD47 and SIRPα interaction with competitive ELISA assay (refer to methods described in Example 4.2.3.).

[2] = biological target: T2, human SIRPα v2 ECD recombinant protein (tag not given) (human); experiment: competitive ELISA, mFc-CD47 ECD on coated SIRPα v2 ECD
T2 construct: extracellular domain; also called ELISA microplate coated human SIRPα v2 ECD
Experimental: as §1, §2

[3] = biological target: T1, human SIRPα v1 ECD recombinant protein …; experiment: competitive ELISA, mFc-CD47 ECD on coated SIRPα v1 ECD; remark: listed apart in the source
Summary of the method: (§3)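 Antibodies co-incubated with mFc-tagged human CD47 ECD on plates coated with human SIRPα v1 or v2 ECD. Bound CD47 detected with HRP anti-mouse Fc (1 h, 37° C) and TMB, read at OD 450 nm; blocking ratio derived from loss of CD47 binding.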

[4] = biological target: T3, mFc tagged human SIRPα v1 ECD recombinant protein (human, UniProt P78324 31-373); experiment: competitive ELISA binning, mFc-SIRPα v1 ECD; competitor 042c
T3 construct: extracellular domain; Bought from Biointron; not shown: mouse IgG Fc (mFc) tag
T3 sequence (P78324 31-373): as above
Experimental: (§4) Competitive ELISA assay was used for epitope binning of purified chimeric antibodies. Briefly excessive competitor antibody and mFc tagged human SIRPα v1 ECD recombinant protein were co-incubated with ELISA microplate coated antibody. After washing, HRP labeled anti-mouse Fc 2nd antibody (Sigma) was added and incubated at 37° C. for 1 hour. Then, 100 μl/well of TMB solution (Biotechnology) was added. After incubation for 15 minutes at room temperature, the reaction was stopped by the addition of 50 μl of 1N HCl. OD 450 nm was read. Competition ratio was calculated. The antibodies that can compete each other for binding to SIRPα may have related binding epitopes.

[5] = biological target: T4, full length human SIRPα v1 stably expressed on CHOK1 or 293F cells (human, UniProt P78324 31-504); experiment: FACS, CHOK1-hSIRPα v1 cells
T4 construct: whole, on cells; also called CHOK1-human SIRPα v1; CHOK1-hSIRPα v1
T4 sequence (P78324 31-504): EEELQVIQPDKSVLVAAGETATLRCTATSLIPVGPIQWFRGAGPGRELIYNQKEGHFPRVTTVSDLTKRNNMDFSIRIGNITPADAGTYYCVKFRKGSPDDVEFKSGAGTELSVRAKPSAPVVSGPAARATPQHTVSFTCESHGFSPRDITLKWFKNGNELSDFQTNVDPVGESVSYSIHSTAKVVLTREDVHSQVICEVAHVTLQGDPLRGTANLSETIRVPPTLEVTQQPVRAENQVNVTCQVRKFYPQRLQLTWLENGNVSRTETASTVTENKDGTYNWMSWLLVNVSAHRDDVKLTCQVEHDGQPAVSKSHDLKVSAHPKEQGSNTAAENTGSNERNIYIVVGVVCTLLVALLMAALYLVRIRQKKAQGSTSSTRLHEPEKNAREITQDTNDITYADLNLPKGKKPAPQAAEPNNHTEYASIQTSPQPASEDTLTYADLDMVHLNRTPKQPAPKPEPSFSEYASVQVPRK

[6] = biological target: T5, full length human SIRPα v1 with a small beta-gal fragment (ED) fused to its C-terminal, expressed in K562 … (human, UniProt P78324 31-504); experiment: cell-based or functional assay
T5 sequence (P78324 31-504): as above

[7] = biological target: T3, mFc tagged human SIRPα v1 ECD …; experiment: competitive ELISA binning, mFc-SIRPα v1 ECD; competitor hu1H9G4
Experimental: as §4

[8] = biological target: T6, human SIRPβL ECD recombinant protein (6×His tagged) (human, UniProt Q5TFQ8 30-371); experiment: ELISA, recombinant human SIRPβL (SIRPβI) ECD
T6 construct: given variously as SIRPBL, SIRPBI and SIRPβI; Bought from Biointron; also called human SIRPBL ECD; human SIRPBI ECD
T6 sequence (Q5TFQ8 30-371 limits assumed): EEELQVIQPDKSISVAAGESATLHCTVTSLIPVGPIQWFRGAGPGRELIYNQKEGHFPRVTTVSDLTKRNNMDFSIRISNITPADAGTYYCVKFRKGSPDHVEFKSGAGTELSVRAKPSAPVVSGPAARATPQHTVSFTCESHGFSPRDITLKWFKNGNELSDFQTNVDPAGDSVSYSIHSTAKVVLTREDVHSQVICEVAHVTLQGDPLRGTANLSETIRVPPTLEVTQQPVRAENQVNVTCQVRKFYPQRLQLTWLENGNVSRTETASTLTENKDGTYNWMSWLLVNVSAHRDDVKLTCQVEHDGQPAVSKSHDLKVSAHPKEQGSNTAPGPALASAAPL
Text: (§5) Binding activity of the purified chimeric antibodies against SIRPβ and SIRPBI was detected by ELISA assay using recombinant proteins of human SIRPβ ECD (FIGS. 3A and 3B), human SIRPBI ECD (FIGS. 3D and 3E) and FACS assay using CHOK 1 cells stably expressing human SIRPB (FIG. 3C).

[9] = biological target: T7, cyno SIRPγ ECD recombinant protein (cyno); experiment: ELISA, cyno SIRPγ ECD
T7 construct: extracellular domain

[10] = biological target: T3, mFc tagged human SIRPα v1 ECD …; experiment: competitive ELISA binning, mFc-SIRPα v1 ECD; competitor 025c
Experimental: as §4

[11] = biological target: T2, human SIRPα v2 ECD recombinant protein …; experiment: competitive ELISA, coated human SIRPα v2 ECD, blocked ligand mFc tagged human CD47 ECD
Experimental: as §1

[12] = biological target: T8, human SIRPγ stably expressed on 293F cells (human, UniProt Q9P1W8 29-387); experiment: FACS, 293F-hSIRPγ cells
T8 construct: whole, on cells
T8 sequence (Q9P1W8 29-387): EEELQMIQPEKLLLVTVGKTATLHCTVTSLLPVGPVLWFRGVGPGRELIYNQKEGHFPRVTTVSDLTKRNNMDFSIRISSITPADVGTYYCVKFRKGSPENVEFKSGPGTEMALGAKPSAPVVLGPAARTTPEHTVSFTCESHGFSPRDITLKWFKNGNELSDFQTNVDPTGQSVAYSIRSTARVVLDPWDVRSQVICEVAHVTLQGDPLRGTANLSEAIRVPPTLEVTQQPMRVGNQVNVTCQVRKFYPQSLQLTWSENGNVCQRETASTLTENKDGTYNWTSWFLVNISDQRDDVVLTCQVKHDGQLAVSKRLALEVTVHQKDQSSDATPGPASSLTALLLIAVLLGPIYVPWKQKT
Text: All the humanized antibodies as tested were confirmed to retain the similar activity as the parental antibody of 025c to bind to SIRP family members.

[13] = biological target: T6, human SIRPβL ECD recombinant protein …; experiment: ELISA, hSIRPβI ECD
Text: as §5

[14] = biological target: T5, full length human SIRPα v1 with a small …; experiment: cell-based or functional assay; remark: listed apart in the source
[15] = biological target: T1, human SIRPα v1 ECD recombinant protein …; experiment: competitive ELISA, coated human SIRPα v1 ECD, blocked ligand mFc tagged human CD47 ECD
Experimental: as §1

[16] = biological target: T2, human SIRPα v2 ECD recombinant protein …; experiment: competitive ELISA, mFc-CD47 ECD on coated SIRPα v2 ECD; remark: listed apart in the source
Summary of the method: as §3

IC50 [1]: 2.03 nM
TOP blocking (%) [1]: 97.5%
IC50 [2]: 1.86 nM
TOP blocking (%) [2]: 98.6%
IC50 [3]: 2.12 nM
TOP blocking (%) [3]: 96.5%
% Competition [4]: 19.1%
EC50 [5]: 1.49 nM
TOP MFI [5]: 77600 MFI
SHP-1 recruitment blocking, IC50 [6]: 0.08 nM
SHP-1 recruitment blocking, TOP blocking (%) [6]: 87%
% Competition [7]: 15.3%
EC50 (read off the curve) [8]: ~0.4 nM
EC50 [9]: 0.36 nM
TOP OD450 [9]: 3.07 OD450
% Competition [10]: 93.5%
IC50 (read off the curve) [11]: ~2 nM
EC50 [12]: 0.2 nM
TOP MFI [12]: 22800 MFI
EC50 [13]: 0.33 nM
TOP OD450 [13]: 2.8 OD450
SHP-1 recruitment blocking, IC50 [14]: 0.28 nM
SHP-1 recruitment blocking, TOP blocking (%) [14]: 84.5%
IC50 (read off the curve) [15]: 2 to 3 nM
IC50 [16]: 2.21 nM
TOP blocking (%) [16]: 96.5%
B1: 025c (antibody, V domains shown)
VH: EVQLQQSGAELVKPGASVKLSCTASGFNIKDYYMHWVKQRTEQGLEWIGRIDPEDGETKYAPKFQGKATITADTSSNTAYLQLSSLTSEDTAVYYCDRGLAYWGQGTLVTVSA
VL: QIVLTQSPAIMSASPGEKVTLTCSASSSVSSSYLYWYQQKPGSSPKLWIYSTSNLASGVPARFSGSGSGTSYSLTISSMEAEDAASYFCHQWSSYPYTFGGGTKLEIK
notes: also called chimeric antibody 025c; parental antibody of 025c
